Results taken from the nanobody polyreactivity screen of Harvey et al. (2022).

Assay: yeast display, Sf9 membrane polyspecificity reagent, FACS + sequencing; frameworks hold sequencing errors
Summary of the method: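 Genes from sorted yeast were amplified by colony PCR, read by MiSeq 2 × 250 sequencing and filtered on CDR length. These cells carried a synthetic nanobody library in Saccharomyces cerevisiae BJ5465 and were sorted by FACS into low and high (top ~1%) gates on anti-HA and streptavidin fluorescence. Polyreactivity is labelled according to the gate of origin.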

Sequence	polyreactivity (PSR sort gate)
QVQLVESGGGLVQAGGSLRLSCAASVFTIPPYAMGWYRRAPGKERELVARITWSGDRTYYADSVKGRFTISRDNAKNTFYLQINSLKPEDTAVYYCADDSAQYYEMDYWGQGTQVTVSS	high polyreactivity
QVQLVESGGGLVQAGGRLRLSCAASGSIFNRYAMGWYRQAPGKERELVAAISSTGSTYYADSVKGRFTISRDNAKNTVYLQMNSLKPEDTAVYYCNADATHDLLRVDTYEYWGQGTQVTVSS	low polyreactivity
QVQLVESGGGLVQAGGSLRLSCAASGRTFENYAMGWYRQAPGKERELVAAISKSGGSTYYADSVKGRFTISRDNAKNTVYLQMNSLKPEDTAVYYCATRLTSAVGRYLYDFGYWGQGTQVTVSS	high polyreactivity
QVQLVESGGGLVQAGGSLRLSCAASGRIYRYAIGWYRQAPGKERELVASISYSGGSTYYADSVNGRFTISRDNAKNTVYLQMNSLKPEDTAVYYCAARTRHVHYGDWGQGTQVTVSS	high polyreactivity
QVQLVESGGGLVQAGGSLRLSCAASGSIFTTNAMGWYRQAPGKERELVARIDRAGSTYYADSVKGRFTISRDNAKNTVYLQMNSLKPVDTAVYYCAVEAVLSRPYATKFDYWGQGTQVNVSS	low polyreactivity
QVQHVESGGGLVQAGGSLRLSCAASGRTFDWYAMGRYRQAPGKEMELVAAISSGGSTYYADSVKGRFTISRDNAKNTVYLQMNSLKPEDTAVYYCAAEWHYIYAYDYWGQGTQVTVSS	low polyreactivity
QVQLVESGGGLVQAGGSLRLSCAASGRTLRHYAMGWYRQAPGKERELVAAISSTGSSTYYADSVKGRFTISRDNAKNTVYLQMNCLKPEDTAVYYCNAGKKYVDYGVLSSRYYWGQGTQVTVSS	low polyreactivity
QVQLVESGGGLVQAGGSLRLSCAASGSIFTYNAMGWYREAPGKERELVAAIRLSGGSTYYADSVKGRFTISRDNAKNTVYLQMNSLKPEDTAVYYCAAESAAASAVYSVEYDYWGQGTQVTVSS	low polyreactivity
QVQLVESGGGLVQAGGSLRLSCAASGSIFRANAMGWYRQAPGKERELVAAISRRGGNTYYADSVKGRFTISRDNAKNTVYLQMNSLKPEDTAVYYCAADRSEYDYWGQGTQVTVSS	high polyreactivity
QVQLVESGGGLVQAGGSLRLSCAASGNIFYVYVMGGYRQAPGKERELVASITSGASTYYADSVKGRFTISRDNAKNTVYLQMNSLKPDDTAVYYCAAEALGGAGDYSTLYIYDYWGQGTQVTVSS	low polyreactivity
QVQLVESGGGLVQAGGSLRLSCAASGITFYVYAMGWSRQAPGKEREFVAAISTRDGTTYAYSVKGRFTISRDNAKNTVYLQMNSLKPEDTAVYYCAAAYYYDGQQGDFDYWGQGSQVTVSS	low polyreactivity
QVQLVESGGGLVQAGGSLRLSCAASGSTFGHYAMGWYRPAPGKERELVAGITDTDNHELRRLCEGRFTISRDNAKNTVYLQMNSLKPEDTAVYYCIADDTYYPLGGITGYDDWGQGTQVTVSS	low polyreactivity
QVQLVESGGGLVQAGGSLRLSCAASGRIFGYYTMGWYRQAPWKESELVARIRRNGVSTYYADSVKGRFTISRDNEKNTVYLQMNSLKPEDTAVYYCAAGYSINFKYDYWGQGTQVTVSS	high polyreactivity
QVQLVESGGGLVQAGGSLRLICAASGRTFYRYAMGWYRQAPGKERELVAAISRSGTTYYADSVKGRFTISRDNAKNTVYLQMNSLKPEDTAVYYCAAKPAGRQRGGDYWGQGTQVTVSS	high polyreactivity
QVQLVESGGGLVQAGGSLRLSCAASGSSFPRYAMAWYTPAPGKERELVAAISSGGSTYYADSVKGRFTISRDNAKNTVYLQMNSLKPEDTAVYYCTARRSRSRYDYWGQVTQVTVSS	high polyreactivity
QVQLVESGGGLVQAGGSLRLSCAACGSTFYGHAMGWYRQAPGKRELVAAITWSGGSTYYADSVKGRFTISRDNAKNTVYLQMNSLKPEDTAVYYCAADRRNNNGASGTRLDYWGQGTQVTVSS	low polyreactivity
QVQLVESGGGLVQAGGSLRLSCAASGFIFGNYAMGWYRQAPGKERELVATITRRGGRTYYADSVKGRFTISRDNAKNTVYLQMNSLKPEDSAVYYCNARPSRWAREGYWGQGTQVTVSS	high polyreactivity
QVQLVESGGGLVQAGGSLRLSCAASGRTFTRYVMGWYRQAPAKEREVVAAISSSGGTYYADSVKGRFTISRDNAKNTVYLQMNSLKPEDTAVYYCAVGSKLSRSYGYYYWGQGTQVTVSS	high polyreactivity
QVQLVESGGGLVQAGGRLRLSCAASGFTFTPYAMGWYRQAPGTERELVAAISWGDGSTYYADSVKGRFTISRDNAKNTVYLQMNSLKPEDTAVYYCAAYRGPRIYRYDYWGQGTQVTVSS	high polyreactivity
QVQLVESGGGLVQAGGSLRLSCAASGRIFYRNAKGWYRQATGKERALVASITSGGRTNYADSVKGRFTISRDNAKNTVYLQMNSLKPEDTAVYYCAAPPPYSVRTFRFYYWGQGTQVTVSS	high polyreactivity
QVQLVESGGGLVQAGGSLRLSCAASGNTFAGNAMGWYRQAPGKERELVAAISRSGVTTRYADSVKGRFTISRDNAKNTVYLQMNSLKPEDTAVYYCNADPRLRQTRDYWGQGTQVTVSS	high polyreactivity

Sequence	polyreactivity (PSR sort gate)
QVQLVESGGGLVQAGGSLRLSCAASGFTFYSYAMGWYRQAPGKERELVAAITDRGGSTYYADSVKGRFTISRDNAKNTVYLQMNSLKPEDTAVYYCAAASGIRSYSYGWLGREYYWGQGTQVTVSS	high polyreactivity
QVQLVESGGGLVQAGGSLRLSCAASGIIFRTYAMGWYRQAPGKEREFVAAISWSGGRTYYADSVKGRFTISRDNAKNTVYLQMNSLKPEDTAVYYCAALRSSQSKGDYWGQGTQVTVSS	high polyreactivity
QVQLVESGGGLVKAGGSLRLSCAASGITFWRYTMGWYRQAPGIERELVAAITSRGGNTYYADSVKGRFTISRDNAKNTVYLQLNSLKPEDTAVNYCNADRYNKYWYDYWGQGTQVTVSS	high polyreactivity
QVQLVESGGGLVQAGGSLRLSCAASGRNFKQYAMGWYRQAHGKERELVAAISVRGGITYYADSVKGRFTISRDNAKNTVYLQMNSLKPEVTGVYYCAKRSYRTHTYDYWGQGTQVTVSS	low polyreactivity
QVQLVESGGGLVQAGGSLRLSCAASGRTFYYAMGWYRQAPVKERYADSVKGRFTISRDNAKNTVYLQMNSLKPEDTAVYYCAAKVPEPPSLDESDYWGQGTQVTVSS	low polyreactivity
QVQLGESGGGLVQAGGSLRLSCAASGRTFYTNARGWYRQAAGKARELAADISRGGTTYYADSVKGRFTISRDNAKNTVYLQMNSLKPQDTAVYYSAAEGHELTEGDSWGQGTQVTVSS	low polyreactivity
QVQLVESGGGLVQAGGSLRLSCAASGSIFDTYAMGWYRQAPGKERELVAAITWSGSSTYYADSVKGRFTISRDNAKNTVYLQMNSLKPEDTAVYYCAKDYYVEVTTEYDYWGQGTQVTVSS	high polyreactivity
QVQLVESGGGLVQAGGSLRLSCAASGFIFAPNAMGWYRQAPGKERELVAAISHSGASTFYADSVKGRFTISRDNAKNTVYLQMNILKPEDTAVYYCAADLYIYYVWIRDYWGHGTQVTVSS	low polyreactivity
QVQLVESGGGLVQAVGSLRLSCAASGYTFVIYAMGWYRQAPGKERELVAAITTIGGRTYYADSVKGRFTISRDNAKNTVYLQMISLKPEDTAVYYCAADIRSNRLYDGGYWGLGTQVTVSS	low polyreactivity
QVQLVESGGGLVQAGRSLPLSCAASGRTFRPNAMGWYRQAPGKERELVAVSSWRGGRTYYADSVKGRFTISRDNAKNTVYLQMNSLKPEDTAVYYCAAGPTSRRWYDYWGQGTQVTVSS	high polyreactivity
QVQLVESGGGLVQAGGSLRLSCAASGRIFFTNAMGWYRQAPGKERELVATISSSDGSTYYADSVKGRFTISRDNAKNTVYLQMNSLNPEDTAVYYCAALYSFRGSRQYTYKYYYWGQGTQVTVSS	high polyreactivity
QVQLVESGGGLVQAGGSLRLSCAASGSIFVYNAMGWYRQAPGNERELVAGINYSGGSTYYADSVKGRFTISRDNATNTVYLQMNSLKPEDTAVYSCARRRPYQWPYNYWGQGTQVTVSS	high polyreactivity
QVQLVESGGGLVQAGGSLRLSCAASGIIFYYYAMGWYRQAPGKERELVASISRSGTDTYYADSVKGRFTISRDTAKNTVYLQMNSLKPEDTAVYYCAARGYYRWAAYADWRFNYWGQGTQVTVSS	high polyreactivity
QAQLQESCGSLVQAGGGQRLSCAASGYISVGTVIGWYRQAPSKERELVASIDQGANTNYADSVKGRFTISRDNAKNNVYLKMNSLKPEDTAVYYCATESTYILNYWGQGTQVTVSS	low polyreactivity
QVQLVESGGGLVQAGGSLRLSCAASGRIFKTYAMGWYRQAPGKERELVAAITASGGRTYDADSVKGRFTISRDNAKNTVYLQMNSLTPEDTAVYYSAAPLLRDLRSPYSYNYWGQGTQVTVSS	low polyreactivity
QVQLVESGGGLVQAGGSLRISCAASGSTFDANAMGRYRQAPGKEREMVAANSYSGGTTYYADSVKGRFTISRDNAKNTVYLQMNSLKQEDTAVYYCATRKAFTAGSYNVYYGEYYWGQGTQVTVSS	low polyreactivity
QVQLVESGGGLVQAGGSLRLSCAASGFIFARYAMGWYRQAPGKVRELVARITTGDSTYYADSVKGRFTISRDNAKNTVYLQMNSLKPEDTAVYYCAADDNVSVVGLYYWGQGTQVTVSS	low polyreactivity
QVQLVESGGGLVQAGGSLRLSCAASGRTLPSYAMGWYRQAPGKERELVAAITGSGGRTYYADSVKGRFTISRDNAKNTVYLQMNSLKPEDTAVYYCAARQDDYGKINYYWGQGTQVTVSS	high polyreactivity
QVQLVESGGGLVQAGVSLRLSCAASGSTFVVNAMGWYRQAPGKERELVAAITQSGGSTFYADSVKGRFTISRDNAKNTVYLQMNSLKPEDTAVYYWGQGTQVTVSS	low polyreactivity
KVQIVESVGGLVQAGASLRLSCAASGSIFRYYPMGWYRQAPGKERELDAAISSSGTTYYADSVKGRFTISRDNAKNTVYLQMNRLKPEDCAVYYCAAVWTYWYYGDDYWGLGTQVTVSS	low polyreactivity
